Results on 41 sequences are retold here after the nanobody polyreactivity screen of Harvey et al. (2022).

The data set can be described thus: yeast display, Sf9 membrane polyspecificity reagent, FACS + sequencing; frameworks hold sequencing errors. In short, it runs like this: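 Galactose induction of a Saccharomyces cerevisiae BJ5465 synthetic nanobody display library ran 36–48 hours. The cells were then stained for 1 hour at 4 °C with 10% biotinylated, detergent-solubilized Sf9 membrane reagent, pulled down on streptavidin microbeads and FACS-sorted into low and high (top ~1%) gates on expression and reagent-binding fluorescence. Labels for polyreactivity follow the gate of origin.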
Consider “QVQLVESGGGLVQAGGSLRLSCAASGRIFTYYPMGWYRQAPGKQRELVAAISWNGDSTYYADSVKGRFTISRDNAKNTVYLQMNSLKPEDTAVYYCIADSFTGYDYWGQGTQVTVSS”, for which the “polyreactivity (PSR sort gate)” value is recorded as “low polyreactivity”.

As for “QVQLVESGGGLVQAGGSLRLSCAASGRIFTYYTMGWYRQAPGKERELVAAISWSGGRTYYADSVKGRFTISRDNAKNTVYLQMNSLKPEDTAVYYCARLQDSRESPWRGYYWGQGTQVTVSS”, the “polyreactivity (PSR sort gate)” value was “high polyreactivity”.

Regarding “QVQLVESGGGLVQAGGSLRLSCAASGRIFTYYVMGWYRQAPWKERELVAAISYGGGSTYYADSVKGRFTISRDNAKNTVYLQMNSLKPEDTAGYYCAAEDGYRKMDYWGQGTQVTVSS”, the “polyreactivity (PSR sort gate)” value is given as “low polyreactivity”.

For the sequence “QVQLVESGGGLVQAGGSLRLSCAASGRIFVAYAMGWYRQAPGKERELVADIDYIDGSTYYADSVKGRFTISRDNAKNTVYLQMNSLKPEDTAVYYCAVDSLYYAGYYDYWGQGTQVTVSS”, the “polyreactivity (PSR sort gate)” value is “high polyreactivity”.

As to “QVQLVESGGGLVQAGGSLRLSCAASGRIFVDNDMGWYRQAPGKERELVAAISGNGGNTNYADSVKGRFTISRDNAKNTVYFQMNSLKPEDTAVYYCAATYPVGHVYRYDYWGQGTQVTVSS”, the “polyreactivity (PSR sort gate)” value is reported as “low polyreactivity”.

With “QVQLVESGGGLVQAGGSLRLSCAASGRIFVDNDMGWYRQAPGKERELVAAISGNGGNTNYADSVKGRFTISRDNAKNTVYLQMNSLKPEDTAVYYCAATYPVGHVYRYDYWGQGTQVTVSS”, the “polyreactivity (PSR sort gate)” value is “low polyreactivity”.

Regarding “QVQLVESGGGLVQAGGSLRLSCAASGRIFVFYAMGWYRQAPGKERELVAAITSGGSTYYADSVKGRFTISRDNAKNTVYLQMNSLKPEDTAVYYCAARGRVSWSTYWYEYWGQGTQVTVSS”, the “polyreactivity (PSR sort gate)” value was “high polyreactivity”.

With “QVQLVESGGGLVQAGGSLRLSCAASGRIFVGNTMGWYRQAPGKERELVAAITYRGGSTYYADSVKGRFTISRDNAKNTVYLQMNSLKPEDTAVYYCATAGYWGGDYWGQGTQVNVSS”, the “polyreactivity (PSR sort gate)” value is listed as “low polyreactivity”.

As for “QVQLVESGGGLVQAGGSLRLSCAASGRIFVGYAMGWFRQAPGKERELVAAINRSGSSTYYADSVNGRFTISRDNAKNTVYLQMNSLKPEDTAVYYCAARYYPRVRYATYYGSYYWGQGTQVTVSS”, the “polyreactivity (PSR sort gate)” value is recorded as “high polyreactivity”.

As for “QVQLVESGGGLVQAGGSLRLSCAASGRIFVGYAMGWSRQAPRNERELVAAISDRGGNTYYADSVKGRFTISRDNAKNTVYFQMNSLKPEDTAVYYCAKEVRWWYGYWGQGTQVTVSS”, the “polyreactivity (PSR sort gate)” value is listed as “high polyreactivity”.

Take “QVQLVESGGGLVQAGGSLRLSCAASGRIFVGYAMGWYRQAPGKERELVAAINRSGSSTYYADSVKGRFTISRDYAKITVYLQMNSLKPEDTAVYYCNARSGNRYGPRYDYWGQGTQVTVSS”: the “polyreactivity (PSR sort gate)” value is reported as “high polyreactivity”.

As for “QVQLVESGGGLVQAGGSLRLSCAASGRIFVGYAMGWYRQAPGKERELVAAISARGGSTYYADSVMGRFTISRDNAKNTVYLQMNSLKPEDTADYYCAADEASSRGYYDSDYWGQCTQVTVSS”, the “polyreactivity (PSR sort gate)” value is “low polyreactivity”.

As to “QVQLVESGGGLVQAGGSLRLSCAASGRIFVGYAMGWYRQAPGKERELVATITGSGGRTYYADSVKGRFTISRDNAKNTVYLQMNSLKPEDTAVFYCATRPPLFYYDDHDDDDYWGQGTQVTVSS”, the “polyreactivity (PSR sort gate)” value is listed as “low polyreactivity”.

Regarding “QVQLVESGGGLVQAGGSLRLSCAASGRIFVHYAMGWYRQAPGKEREWVAAITSGSSTNYADSVKGRFTISRDNAKNTVYLQMNSLKPEDTAVYYCAVDDWLDWLCADFGYWGQGTQVTVSS”, the “polyreactivity (PSR sort gate)” value is “low polyreactivity”.

For the sequence “QVQLVESGGGLVQAGGSLRLSCAASGRIFVKNAMGWYRQAPGKERELVAGISRGGSTYYADSVKGRFTISRDNAKNTVYLQMNSLKPEDTAVYYCATRNYGRGQFDYWGQGTQVTVSS”, the “polyreactivity (PSR sort gate)” value is given as “high polyreactivity”.

As for “QVQLVESGGGLVQAGGSLRLSCAASGRIFVKYAMGLYRQAPGKERELVAAIRSGGSTYYADSVKRRFTISRDNAKYTVYLQMNSLKPEDTAVYYCAADRNKHHYYNEPYDYWGQGTQVTVSS”, the “polyreactivity (PSR sort gate)” value is given as “low polyreactivity”.

Consider “QVQLVESGGGLVQAGGSLRLSCAASGRIFVNNAMGWYRQAPGKEREFVAGISFSGDGRTYYADSVKGRFTISRDNAKNTVYLQMNSLKPEDTAVYYCAAPHRSRTHELDYWGQGTQVTVSS”, for which the “polyreactivity (PSR sort gate)” value was “low polyreactivity”.

In the case of “QVQLVESGGGLVQAGGSLRLSCAASGRIFVNYAMGWYRQAPGKERELDAAITSDGSTSYADSVKGRFTISRDNAKNTVYLQMNSLKPEDTAVYYCAKDFFEHSPVSHTYSSSKYDYWGQGTQVTVSS”, the “polyreactivity (PSR sort gate)” value is on record as “low polyreactivity”.

Regarding “QVQLVESGGGLVQAGGSLRLSCAASGRIFVPYAMGWYRQAPGKERELVATITFGGGRTYYADSVKGRFTISRDNAKNTVYLQMNSLKPEDTAVYYCAADYYLWRLPVYAQRSFVRGDYWGQGTQVTVSS”, the “polyreactivity (PSR sort gate)” value is given as “low polyreactivity”.

Regarding “QVQLVESGGGLVQAGGSLRLSCAASGRIFVPYAMGWYRQAPGKERELVAVISRGGSTYYADSVKGRFTISRDNAKNTVYLQMNSLKPEDTAVYYCAARGVNRQGFNYWGQGTQVTVSS”, the “polyreactivity (PSR sort gate)” value is listed as “high polyreactivity”.

For the sequence “QVQLVESGGGLVQAGGSLRLSCAASGRIFVQNAMGWYRQAPGKEREVVAAISSRGTSTYYADSVKGRFTISRDNAKNTVYLQMNSLKPEDTALYYCAAREWRTFDYWGQGTQVTVSS”, the “polyreactivity (PSR sort gate)” value is on record as “low polyreactivity”.

Consider “QVQLVESGGGLVQAGGSLRLSCAASGRIFVQYVMGWYRPAPGKERELVAAITGSDSTTYYADSVKGRFTISRDNAKNTVYLQMNSLKPEDTAVYYCNKDLWLQDDYWGQGTQVTVSS”, for which the “polyreactivity (PSR sort gate)” value is “low polyreactivity”.

As to “QVQLVESGGGLVQAGGSLRLSCAASGRIFVRNAMGWYRQAPGKERELVAAISWSSGGTYYADSVKGRFTISRDNAKNTVYLQMNSLKPEDTAVYYCNADPSRAGDYWGQGTQVTVSS”, the “polyreactivity (PSR sort gate)” value is “low polyreactivity”.

For “QVQLVESGGGLVQAGGSLRLSCAASGRIFVRYAMGWYRQAPGKERELVAAIRWSGGRTYYADSVKGRFTISRDNAKNTFYLQMNSLKPEDTAVYYCAVRYRDLFGYWGQGTQVTVSS”, the “polyreactivity (PSR sort gate)” value was “high polyreactivity”.

On to “QVQLVESGGGLVQAGGSLRLSCAASGRIFVRYAMGWYRQAPGKERELVAAISSGGRTHYADSVKGRFTISRDNAKNTVYLQRNSLKPEDTAVYDCATRLRSTTRYYYWGQGTQVTVSS”, for which the “polyreactivity (PSR sort gate)” value is “high polyreactivity”.

On to “QVQLVESGGGLVQAGGSLRLSCAASGRIFVRYAMGWYRQAPGKERELVAAISSRGGTTYYADSVKGRFTISRDNAKNTVYLQMNSLKPEDTAVYYCAALYDSTYGGVLFDYWGQGTQVTVSS”, for which the “polyreactivity (PSR sort gate)” value was “low polyreactivity”.

As to “QVQLVESGGGLVQAGGSLRLSCAASGRIFVRYVMGWYRLAPGKERELVAAINWNGGSTYYADSVKGRFTISRDNAKNTVYLQMNSLKPEDTAVYYGAARGQFYNTRGGYWGQGTQVTVSS”, the “polyreactivity (PSR sort gate)” value is “high polyreactivity”.

In the case of “QVQLVESGGGLVQAGGSLRLSCAASGRIFVSNAMGWYRQAPGKERELVAAISKSGGRTYYADSVKGRFTISRDNAKNTVYLQMNSLKPEDTAVYYCAARSRVSPRYDYWGQGTQVTVSS”, the “polyreactivity (PSR sort gate)” value was “high polyreactivity”.

Consider “QVQLVESGGGLVQAGGSLRLSCAASGRIFVSNAMGWYRQAPGKERELVAGINSGDRTYYADSVKGRFTISRDNAKNTVYLQMNSLNPEDTAVYYFADSSRRGTGLRYYWGQGTQVTVSS”, for which the “polyreactivity (PSR sort gate)” value is listed as “high polyreactivity”.

As for “QVQLVESGGGLVQAGGSLRLSCAASGRIFVSYAMGWYRQAPGKERELVADMSWSGSITYYADSVKGRFTISRDNAKNTVYLQMNSLKPEDTAVYYCAKKSIYDYSTTYPEYDYWGQGTQVTVSS”, the “polyreactivity (PSR sort gate)” value is “low polyreactivity”.

As for “QVQLVESGGGLVQAGGSLRLSCAASGRIFVTNAMGWYRQAPGKERELVAAISTGGSTNYADSVKGRFTISRDNAKNTVYVQRNSLKPEDTAVYYCNRGSRYSHKYDYWGQGTQVTVSP”, the “polyreactivity (PSR sort gate)” value is given as “high polyreactivity”.

On to “QVQLVESGGGLVQAGGSLRLSCAASGRIFVTNAMGWYRQAPGKERELVAAISYRGGRTYYADSVKGRFTISRDNAKNTVYLQMNSLKPEDTAVYYCNAVTRGPFDYWGQGTQVTVSS”, for which the “polyreactivity (PSR sort gate)” value is recorded as “high polyreactivity”.

Consider “QVQLVESGGGLVQAGGSLRLSCAASGRIFVTYVMGWYRPAPGKERELVAAISRRGGTTYYADSVKGRFTISRDNAKNTVYLQMNSLKPEDTAVYYCNVARHYAVESGYWGQGTQVTVSS”, for which the “polyreactivity (PSR sort gate)” value was “high polyreactivity”.

On to “QVQLVESGGGLVQAGGSLRLSCAASGRIFVVYAMGWYRQAPGKERELVAAIRSGGSTNYADSVKGRFTISRDNAKNTVYLQMNSLKPEDTAVYYCADCKWHSAYDYWGQGTQVTVSS”, for which the “polyreactivity (PSR sort gate)” value is reported as “high polyreactivity”.

In the case of “QVQLVESGGGLVQAGGSLRLSCAASGRIFVVYAMGWYRQAPGKERELVATITSGGSTYYADSVKGRFTISRDNAKNTVYLQMNSLKPEDTAVYYCAAYAYIFLDWGGYPYYLYEYDYWGQGTQVTVSS”, the “polyreactivity (PSR sort gate)” value was “low polyreactivity”.

For “QVQLVESGGGLVQAGGSLRLSCAASGRIFVVYVMGWYRQAPGKERELVAAISYSTGSTYYADSVKGRFTISRDNAKNTVYLQMKSLKPEDTAVYYCAVAAARKSFVSRYYYWGQGTQVTVSS”, the “polyreactivity (PSR sort gate)” value is on record as “low polyreactivity”.

As for “QVQLVESGGGLVQAGGSLRLSCAASGRIFVYNAMGWYRQAPGKERELVATISSGGSTNYADSVKGRFTISRDNAKNTVYLQMNSLKPEDTAVYYCAARFYVSNSRISARNYWGQGTQVTVSS”, the “polyreactivity (PSR sort gate)” value was “high polyreactivity”.

As for “QVQLVESGGGLVQAGGSLRLSCAASGRIFVYNTMGWYRQAPGKERELVAAMSWSGVGTYYADSVKGRFTISRDKAKNTVYLQMNSLKPEDTAVYYCNAWIYYGYFIFDYWGQGTQVTVSS”, the “polyreactivity (PSR sort gate)” value is recorded as “high polyreactivity”.

For “QVQLVESGGGLVQAGGSLRLSCAASGRIFVYYAMGWYRQAPGQEREFVATISSTGGSTYYADSVKGRFTISRDNAKNTVYLQMNSLKPEDTAVYYCAVRGWYPGVRYDYWGQGTQVTVSS”, the “polyreactivity (PSR sort gate)” value was “low polyreactivity”.

“QVQLVESGGGLVQAGGSLRLSCAASGRIFVYYVMGWYRQAPGKERELVASITFRGSRTYYADSVKGRFTISRDNAKNTVYLQMNSLKTEETAGYYCNADVWASGSRGEGYWGQGSQVTVSS”: the “polyreactivity (PSR sort gate)” value is listed as “low polyreactivity”.

On to “QVQLVESGGGLVQAGGSLRLSCAASGRIFWANAMGWYRQAPGKERELVAAISYSGVSTYYADSVKGRFTISRDNAKNTVYLQMNSLKPADTAVYYCAADRYRKYYYWGQGTQVTVSS”, for which the “polyreactivity (PSR sort gate)” value is listed as “high polyreactivity”.
